Experimental data reported in publication PMC2823527 (The Journal of Biological Chemistry, 2009).
Read-outs that look alike come from different tables or passages of the source. Blank lines part the entries; values can stand above or below the binder they belong to.

T1: Sgf11 full-length, released from GST (S. cerevisiae, UniProt Q03067 1-99)
T1 sequence (looked up): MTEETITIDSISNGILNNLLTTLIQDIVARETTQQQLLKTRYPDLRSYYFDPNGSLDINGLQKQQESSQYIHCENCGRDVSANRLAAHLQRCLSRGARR

T2: GST-Sac3 753-805 / Cdc31 complex (yeast, UniProt P46674 753-805; P06704 1-161)
T2 sequence (looked up) 1: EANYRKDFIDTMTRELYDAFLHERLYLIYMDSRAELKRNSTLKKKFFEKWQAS
T2 sequence (looked up) 2: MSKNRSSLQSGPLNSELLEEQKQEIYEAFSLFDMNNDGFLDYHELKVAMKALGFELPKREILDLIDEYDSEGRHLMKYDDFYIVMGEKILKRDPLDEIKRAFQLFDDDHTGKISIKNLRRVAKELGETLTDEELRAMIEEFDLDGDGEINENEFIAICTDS

T3: GST-Sac3 723-805 / Cdc31 complex (yeast, UniProt P46674 723-805; P06704 1-161)
T3 sequence (looked up) 1: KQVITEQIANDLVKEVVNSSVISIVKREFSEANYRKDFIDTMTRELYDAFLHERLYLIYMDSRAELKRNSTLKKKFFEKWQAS
T3 sequence (looked up) 2: T2 sequence (looked up) 2

B1: Sus1 (natural protein, yeast, UniProt Q6WNK7 1-96, looked up)
chain: MTMDTAQLKSQIQQYLVESGNYELISNELKARLLQEGWVDKVKDLTKSEMNINESTNFTQILSTVEPKALEMVSDSTRETVLKQIREFLEEIVDTQ

Key:
Sus1 [1] = molecular target: B1; test: crystal structure
Sus1 [2] = molecular target: B1; test: crystal structure; remark: listed apart in the source
[3] = molecular target: T1, Sgf11 full-length, released from GST; test: SEC
[4] = molecular target: T2, GST-Sac3 753-805 / Cdc31 complex; test: pull-down
[5] = molecular target: T3, GST-Sac3 723-805 / Cdc31 complex; test: pull-down

- binding result (Sus1 [1]): binds
Binder: TIDSISNGILNNLLTTLIQDIVARETT (domain or fragment, S. cerevisiae, UniProt Q03067 7-33, looked up) [Sgf11-(7-33), released from GST]

- binding result (Sus1 [2]): binds
Binder: MTEETITIDSISNGILNNLLTTLIQDIVARETT (domain or fragment, S. cerevisiae, UniProt Q03067 1-33, looked up) [Sgf11-(1-33), released from GST]

Binder: B1
- binding result [3]: binds
- binding result [4]: binds
- binding result [5]: binds
